Data: ChEMBL document CHEMBL1150988, “-lactam-recognizing enzymes exhibit different structural specificity in acyclic amide and ester substrates: a starting point in -lactamase evolution?” (Bioorg Med Chem Lett, 1994)

How the values were obtained:
Details in all cases: enterococcus cloacae
[1] = substrate: C[C@H](NC(=O)Cc1ccccc1)C(=O)O[C@H](C)C(=O)O; test: (§1) Km against P99 beta-lactamase
[2] = substrate: CC(=O)NCCCC[C@H](NC(C)=O)C(=O)NCC(=O)S[C@H](C)C(=O)O; test: as §1
[3] = substrate: C[C@@H](SC(=O)CNC(=O)Cc1ccccc1)C(=O)O; test: as §1
[4] = substrate: CC(=O)NCCCC[C@H](NC(C)=O)C(=O)N[C@@H](C)C(=O)O[C@H](C)C(=O)O; test: as §1
[5] = substrate: C[C@@H](OC(=O)CNC(=O)Cc1ccccc1)C(=O)O; test: as §1
[6] = substrate: CC(=O)NCCCC[C@H](NC(C)=O)C(=O)NCC(=O)O[C@H](C)C(=O)O; test: as §1

B1: Beta-lactamase (Enterobacter cloacae), P05364 (protein)
chain: MMRKSLCCALLLGISCSALATPVSEKQLAEVVANTITPLMKAQSVPGMAVAVIYQGKPHYYTFGKADIAANKPVTPQTLFELGSISKTFTGVLGGDAIARGEISLDDAVTRYWPQLTGKQWQGIRMLDLATYTAGGLPLQVPDEVTDNASLLRFYQNWQPQWKPGTTRLYANASIGLFGALAVKPSGMPYEQAMTTRVLKPLKLDHTWINVPKAEEAHYAWGYRDGKAVRVSPGMLDAQAYGVKTNVQDMANWVMANMAPENVADASLKQGIALAQSRYWRIGSMYQGLGWEMLNWPVEANTVVEGSDSKVALAPLPVAEVNPPAPPVKASWVHKTGSTGGFGSYVAFIPEKQIGIVMLANTSYPNPARVEAAYHILEALQ
- Km [1]: 23.4 mM
- Km [2]: 6.7 mM
- Km [3]: 3.3 mM
- Km [4]: 26.9 mM
- Km [5]: 8.1 mM
- Km [6]: 36.1 mM
